# Results reported in patent US6831161B1, “Method of affinity separation and ligands for use therein” (Affibody AB, priority 1998, dated 2004).
# Positions count from the first letter of the chain named.
# B1: ABDmut: ABD with Asn28 replaced by leucine, Asn42 by aspartic acid, Asn45 by aspartic acid and Asn46 by lysine (protein)
# chain: MKAIFVLNAQHDEAVDANSLAEAKVLALRELDKYGVSDYYKDLIDKAKTVEGVKALIDEILAALP
# B2: ABDmut22-25-26: ABDmut domain containing alanine substitutions at positions 22, 25 and 26 (protein)
# chain: B1 chain with E22A, V25A, L26A
# B3: ABDmut29-30-33: ABDmut domain containing alanine substitutions at positions 29, 30 and 33 (protein)
# chain: B1 chain with R29A, E30A, K33A
# B4: ABDmut54-57-58: ABDmut domain containing alanine substitutions at positions 54, 57 and 58 (protein)
# chain: B1 chain with K54A, I57A, D58A
# B5: ABDwt: Wild type Albumin Binding Protein domain from Streptococcus G148 with affinity towards human serum albumin; four asparagine residues (protein)
# chain: B1 chain with L28N, D42N, D45N, K46N
# Key:
# HSA [1] = target: T1, HSA (Homo sapiens, UniProt P02768); format: binding; settings: for Kaff (affinity constant, ratio between Kon and Koff): BIAcore 2000, HSA immobilized on CM5 chip
# Excerpt: (§1) A BIAcore 2000 instrument (Biacore AB) was used for real time affinity analysis. HSA and IgG were immobilized on two different surfaces of a CM5 sensor chip by amine coupling to the carboxylated dextran layer. This coupling was done according to the manufacturer's recommendation (Biacore AB). The IgG surface was used as a control. The samples were run through a 0.45 μm filter and injected over the surface in a random order at a flow rate of […].
# Also, an analysis of the kinetic parameters was performed for the proteins that still remained active. This was done by analysing the binding behaviour in different concentrations and thereafter calculating the binding constants by using BIAevaluation 2.1 software (BIAcore AB). The concentrations used were 40-220 nM for ABDwt, 200-600 nM for ABDmut and 800-1250 nM for the NaOH treated ABDmut.
# HSA [2] = target: T1, HSA; experiment: Binding characteristics (BIAcore) before and after treatment with 0.5 M NaOH for 24 hours; settings: room temperature, 800 nM on BIAcore, FIG. 5
# Protocol: In order to examine the stability of ABDwt and ABDmut, the binding characteristics were analysed before and after treatment with 0.5 M NaOH in room temperature for 24 hours. Both ABDwt and ABDmut were solubilized in 1×HBS (10 mM HEPES, pH 7.4, 150 mM NaCl, 3.4 mM EDTA, 0.005% P20) to a concentration of 800 nM and analyzed on BIAcore 2000 (Biacore AB, Uppsala, Sweden). In order to determine the activity change after exposure to a very alkaline environment, the proteins were solubilized in 0.5 M NaOH. After incubation in NaOH for 24 hours, the samples were run through a NAP-10 column (Amersham Pharmacia Biotech, Uppsala, Sweden) equilibrated with 30 mM NH4Ac. The protein containing samples were lyophilized and resolubilised in 1×HBS to a concentration of 800 nM in order to be analyzed in the BIAcore 2000.
# as §1
# HSA [3] = target: T1, HSA; experiment: Alkaline resistance of affinity columns: HSA capacity after repeated 0.5 M NaOH washes; settings: ligand on Sepharose 4B; 15 cycles of 0.5 M NaOH wash, total exposure over 6 hours; FIG. 6
# Protocol: In order to evaluate the usability of the stabilized HSA-binding protein in biotechnology, two affinity chromatography matrices were prepared; one with the unmutated protein (ABDwt) as a control and the other with the mutated ABD (ABDmut). The matrix used was Sepharose 4B (Amersham Pharmacia Biotech, Uppsala, Sweden) with carbodiimide CMC (Sigma Aldrich, Sweden) as the coupling reagent. ABDwt (4.5 mg) and ABDmut (8.5 mg) were dissolved in 9 ml water separately. 3.5 and 5.0 ml gel was added to ABDwt and ABDmut solutions respectively. Finally 0.38 g of CMC was added to the solutions and they were incubated at room temperature over night. The gels were packed on HR columns (d=5 mm, h=43 mm) and pulsed with 0.5 M ethanolamine, 0.5 M NaCl, pH 8.3 in order to inactivate the matrix and 0.1 M NaAc, 0.5 M NaCl, pH 4 in order to wash unbounded proteins out. After this, the columns were ready to use for affinity purification of HSA.
# In order to explore the difference between the ABDwt column and the ABDmut column in respect of stability against alkaline treatment, both columns were repeatedly washed with 0.5 M NaOH. By using the AKTA explorer the columns were loaded with HSA, the protein was eluted by lowering the pH (Stahl et al., (1989) supra) and finally both columns were washed with NaOH. […] The flow rate used was 60 cm/h and the eluted material was collected and analyzed in each round. […]
# HSA [4] = target: T1, HSA; experiment: HSA-binding analysis of ABDmut triple mutants on BIAcore; settings: 200 nM, 20 μl/min, immobilised HSA on CM5 chip, FIG. 7
# Excerpt: ABDmut22-25-26, ABDmut29-30-33, and ABDmut54-57-58 proteins were produced and purified as described in Example 2. In order to analyse the binding behaviour of the different triple-mutants a BI core 2000 instrument was used. HSA was immobilised on a sensor chip surface of a CM5 sensor chip by amine coupling to the carboxylated dextran layer. As control, a sensor chip surface containing IgG was used. This coupling was done according to the manufacturers recommendation (Biacore AB). The samples of the three proteins were run through a 0.45 μm filter and injected over the surface in a random order at a flow rate of 20 μl/min. The concentration used was 200 nM and all samples were analysed three times. […] In addition, residue 62 could also be used for substitutions.
Molecule,Koff (dissociation rate) (HSA [1]) [L/s],Kon (rate at which the proteins associate) (HSA [1]),"Kaff (affinity constant, ratio between Kon and Koff) (HSA [1])",Affinity towards HSA after exposure to alkaline solution (HSA [2]),Column activity (HSA capacity) against NaOH exposure time (HSA [3]),Ability to bind HSA (sensorgrams) (HSA [4])
B1,0.0012,1.8 × 10^4 l/Ms,1.5 × 10^7 l/M,has the affinity preserved,keeping the activity throughout the experiment,–
B2,–,–,–,–,–,retain their ability to bind HSA
B3,–,–,–,–,–,retain their ability to bind HSA
B4,–,–,–,–,–,retain their ability to bind HSA
B5,0.0013,9.0 × 10^4 l/Ms,6.9 × 10^7 l/M,loses the affinity towards HSA,–,–
